Drawing on paper PMC9157509, this text covers stoichiometry N for 1 substance.

This assay addresses AB variant of cytochrome cb562 (forms the disulfide-linked dimer (AB)2) (UniProt P0ABE7). Description: solution small-angle X-ray scattering.

With “AB variant of cytochrome cb562 (forms the disulfide-linked dimer (AB)2) (from UniProt P0ABE7 23-128)”, the stoichiometry N came to 2.

A word on the stoichiometry N: it is a count of units in the complex or per binding partner.
